Results taken from patent publication US7625735B2, “Recombinant kinase from insect cells for the synthesis of nucleoside monophosphates” (Roche Diagnostic Operations, Inc., priority 1998, dated 2009).

B1: recombinant Dm-kinase: recombinant multifunctional deoxynucleoside kinase from Drosophila Melanogaster, expressed in E. coli (protein, UniProt Q9XZT6 1-250, looked up)
Deoxynucleoside kinase: MAEAASCARKGTKYAEGTQPFTVLIEGNIGSGKTTYLNHFEKYKNDICLLTEPVEKWRNVNGVNLLELMYKDPKKWAMPFQSYVTLTMLQSHTAPTNKKLKIMERSIFSARYCFVENMRRNGSLEQGMYNTLEEWYKFIEESIHVQADLIIYLRTSPEVAYERIRQRARSEESCVPLKYLQELHELHEDWLIHQRRPQSCKVLVLDADLNLENIGTEYQRSESSIFDAISSNQQPSPVLVSPSKRQRVAR
B2: native Dm-kinase: native, isolated deoxynucleoside kinase from Drosophila Melanogaster, used for comparison (protein, UniProt Q9XZT6 1-250, looked up)
Deoxynucleoside kinase: B1 Deoxynucleoside kinase

Assays:
[1] = Activity of the kinase from D. Melanogaster at different temperatures; type: biochemical; settings: wide optimum
Procedure: The activity of the Dm-nucleoside kinase was determined at different temperatures. […] (see FIG. 6).
The activity test is described in reference No. 14.

[2] = Kinetic constants of the Drosophila kinase compared to known analogous enzymes; type: biochemical; settings: versus hitherto known kinases, Kc values
Excerpt: Furthermore, […]; as a consequence, for the synthesis of the individual nucleosides it is no more necessary to have the corresponding specific kinase. Particularly advantageous is the low specificity for the synthesis of modified nucleoside analogues, such as dideoxynucleosides or base- or sugar-modified nucleosides. Base-modified nucleosides are for example 7-deaza-nucleosides, C-nucleosides and nucleotides labelled with reporter groups (dye, digoxigenin, biotin) at the base. Sugar-modified nucleosides are for example azathymidine, arabinosyl-thymidine. The specific activity kc of the kinase according to the invention is several times higher than that of the kinases known before. The activity of the enzyme was measured as described in the reference: Munch-Peterson et al. (1991) J. Biol. Chem. 266, 9032-9038. By this, a considerably lower amount of enzyme is necessary to synthesize the dNMPs. (factor 3.5-14000, cf. Kc values in table 1). The specificity constant (kc/KM) of the kinase according to the invention exceeds that of the hitherto known kinases by several powers and is in the region of the diffusion constant. This leads to the complete yield when the kinase is added to the d-NMP synthesis. They are higher by factor 2-6500 than the hitherto known kinases, s. FIG. 1. […]

[3] = Stability: remaining activity of recombinant versus native Dm-kinase after incubation at 37° C.; type: physicochemical
Procedure: The activity of the recombinant Dm-kinase compared to native, isolated Dm-kinase was determined. After different periods of incubation in 50 mM Tris 7.5+2.5 mM MgCl2 at 37° C. the remaining activity was determined.

temperature of maximum activity [1] | Molecule | factor by which specific activity kc exceeds known kinases (lower amount of enzyme necessary) [2] | stability (remaining activity) ([3]; 50 mM Tris 7.5+2.5 mM MgCl2, 37° C., without addition of BSA) | half-life ([3]; Tris buffer in the presence of MgCl2, 37° C.) | half-life ([3]; Tris buffer without MgCl2, 37° C.) | half-life ([3]; pure water) | stability (remaining activity) ([3]; 50 mM Tris 7.5+2.5 mM MgCl2, 37° C., with 2.5 mg/ml BSA) | half-life ([3]; under the same conditions) | remaining activity ([3]; within 50 min, 50 mM Tris 7.5+2.5 mM MgCl2, 37° C., without BSA)
60 °C | B1 | 3.5-14000 | remains stable | 50 h | 31 h | 28 h |  |  | 
 | B2 |  |  |  |  |  | remains stable | < 0.2 h | < 20%
